Results reported in patent publication US20040259165A1 (published 2004).

Target: T1, DsRed fused to the Gal4 DNA binding domain (pGBT9) (Discosoma species)
T1 construct: range 1-147; also called DsRed-prey
Assay: yeast two hybrid in HF7C (HIS3 and LacZ reporters)
Procedure: Yeast two hybrid assays were also performed. […] Alternatively, the yeast were grown on filters placed on plates lacking tryptophan and leucine to select for the bait and prey plasmids. After overnight growth, the filters were removed from the plates, frozen in liquid nitrogen, thawed, and incubated in X-gal overnight at 30° C. and two days at 4° C. to test for β-galactosidase activity (assayed by blue color development).

B1: DsRed fused to the Gal4 activation domain (pGAD GH) (other)
chain: ANFNQSGNIADSSLSFTFTNSSNGPNLITTQTNSQALSQPIASSNVHDNFMNNEITASKIDDGNNSKPLSPGWTDQTAYNAFGITTGMFNTTTMDDVYNYLFDDEDTPPNPKKEMRSSKNVIKEFMRFKVRMEGTVNGHEFEIEGEGEGRPYEGHNTVKLKVTKGGPLPFAWDILSPQFQYGSKVYVKHPADIPDYKKLSFPEGFKWERVMNFEDGGVVTVTQDSSLQDGCFIYKVKFIGVNFPSDGPVMQKKTMGWEASTERLYPRDGVLKGEIHKALKLKDGGHYLVEFKSIYMAKKPVQLPGYYYVDSKLDITSHNEDYTIVEQYERTEGRHHLFL
notes: range 768-881; also called DsRed-bait
  binding result: binds
